B1: Peripheral plasma membrane protein CASK (Homo sapiens), O14936 (parent)
chain: MADDDVLFEDVYELCEVIGKGPFSVVRRCINRETGQQFAVKIVDVAKFTSSPGLSTEDLKREASICHMLKHPHIVELLETYSSDGMLYMVFEFMDGADLCFEIVKRADAGFVYSEAVASHYMRQILEALRYCHDNNIIHRDVKPHCVLLASKENSAPVKLGGFGVAIQLGESGLVAGGRVGTPHFMAPEVVKREPYGKPVDVWGCGVILFILLSGCLPFYGTKERLFEGIIKGKYKMNPRQWSHISESAKDLVRRMLMLDPAERITVYEALNHPWLKERDRYAYKIHLPETVEQLRKFNARRKLKGAVLAAVSSHKFNSFYGDPPEELPDFSEDPTSSGLLAAERAVSQVLDSLEEIHALTDCSEKDLDFLHSVFQDQHLHTLLDLYDKINTKSSPQIRNPPSDAVQRAKEVLEEISCYPENNDAKELKRILTQPHFMALLQTHDVVAHEVYSDEALRVTPPPTSPYLNGDSPESANGDMDMENVTRVRLVQFQKNTDEPMGITLKMNELNHCIVARIMHGGMIHRQGTLHVGDEIREINGISVANQTVEQLQKMLREMRGSITFKIVPSYRTQSSSCERDSPSTSRQSPANGHSSTNNSVSDLPSTTQPKGRQIYVRAQFEYDPAKDDLIPCKEAGIRFRVGDIIQIISKDDHNWWQGKLENSKNGTAGLIPSPELQEWRVACIAMEKTKQEQQASCTWFGKKKKQYKDKYLAKHNAVFDQLDLVTYEEVVKLPAFKRKTLVLLGAHGVGRRHIKNTLITKHPDRFAYPIPHTTRPPKKDEENGKNYYFVSHDQMMQDISNNEYLEYGSHEDAMYGTKLETIRKIHEQGLIAILDVEPQALKVLRTAEFAPFVVFIAAPTITPGLNEDESLQRLQKESDILQRTYAHYFDLTIINNEIDETIRHLEEAVELVCTAPQWVPVSWVY
B2: Peripheral plasma membrane protein CASK (Homo sapiens), O14936 (parent)
chain: B1 chain
partner: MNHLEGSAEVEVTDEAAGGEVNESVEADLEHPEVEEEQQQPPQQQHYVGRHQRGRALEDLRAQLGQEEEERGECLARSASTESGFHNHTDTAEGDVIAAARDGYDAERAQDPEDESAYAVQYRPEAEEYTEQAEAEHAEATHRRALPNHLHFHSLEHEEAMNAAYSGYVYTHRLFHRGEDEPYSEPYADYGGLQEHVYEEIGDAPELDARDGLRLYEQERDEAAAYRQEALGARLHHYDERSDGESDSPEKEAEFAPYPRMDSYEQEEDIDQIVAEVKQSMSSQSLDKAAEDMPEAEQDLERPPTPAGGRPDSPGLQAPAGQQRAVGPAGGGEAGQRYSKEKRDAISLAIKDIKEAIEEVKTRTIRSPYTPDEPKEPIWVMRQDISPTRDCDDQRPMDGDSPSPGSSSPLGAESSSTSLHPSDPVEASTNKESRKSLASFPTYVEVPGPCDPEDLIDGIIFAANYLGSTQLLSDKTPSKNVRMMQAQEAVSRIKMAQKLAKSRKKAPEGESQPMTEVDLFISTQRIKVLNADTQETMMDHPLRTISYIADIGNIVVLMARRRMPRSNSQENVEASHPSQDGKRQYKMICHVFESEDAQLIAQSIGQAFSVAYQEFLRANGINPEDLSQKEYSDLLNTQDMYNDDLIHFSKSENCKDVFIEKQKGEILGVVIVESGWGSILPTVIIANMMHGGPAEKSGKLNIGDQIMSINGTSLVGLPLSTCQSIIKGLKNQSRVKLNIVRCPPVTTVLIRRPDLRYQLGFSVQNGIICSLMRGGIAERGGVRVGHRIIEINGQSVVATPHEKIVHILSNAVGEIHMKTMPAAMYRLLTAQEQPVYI
B3: Caskin-1 (Homo sapiens), Q8WXD9 (parent)
chain: MGKEQELVQAVKAEDVGTAQRLLQRPRPGKAKLLGSTKKINVNFQDPDGFSALHHAALNGNTELISLLLEAQAAVDIKDNKGMRPLHYAAWQGRKEPMKLVLKAGSAVNIPSDEGHIPLHLAAQHGHYDVSEMLLQHQSNPCMVDNSGKTPLDLACEFGRVGVVQLLLSSNMCAALLEPRPGDATDPNGTSPLHLAAKNGHIDIIRLLLQAGIDINRQTKSGTALHEAALCGKTEVVRLLLDSGINAHVRNTYSQTALDIVHQFTTSQASREIKQLLREASAALQVRATKDYCNNYDLTSLNVKAGDIITVLEQHPDGRWKGCIHDNRTGNDRVGYFPSSLGEAIVKRAGSRAGTEPSLPQGSSSSGPSAPPEEIWVLRKPFAGGDRSGSISGMAGGRGSGGHALHAGSEGVKLLATVLSQKSVSESGPGDSPAKPPEGSAGVARSQPPVAHAGQVYGEQPPKKLEPASEGKSSEAVSQWLTAFQLQLYAPNFISAGYDLPTISRMTPEDLTAIGVTKPGHRKKIAAEISGLSIPDWLPEHKPANLAVWLSMIGLAQYYKVLVDNGYENIDFITDITWEDLQEIGITKLGHQKKLMLAVRKLAELQKAEYAKYEGGPLRRKAPQSLEVMAIESPPPPEPTPADCQSPKMTTFQDSELSDELQAAMTGPAEVGPTTEKPSSHLPPTPRATTRQDSSLGGRARHMSSSQELLGDGPPGPSSPMSRSQEYLLDEGPAPGTPPREARPGRHGHSIKRASVPPVPGKPRQVLPPGTSHFTPPQTPTKTRPGSPQALGGPHGPAPATAKVKPTPQLLPPTERPMSPRSLPQSPTHRGFAYVLPQPVEGEVGPAAPGPAPPPVPTAVPTLCLPPEADAEPGRPKKRAHSLNRYAASDSEPERDELLVPAAAGPYATVQRRVGRSHSVRAPAGADKNVNRSQSFAVRPRKKGPPPPPPKRSSSALASANLADEPVPDAEPEDGLLGVRAQCRRASDLAGSVDTGSAGSVKSIAAMLELSSIGGGGRAARRPPEGHPTPRPASPEPGRVATVLASVKHKEAIGPGGEVVNRRRTLSGPVTGLLATARRGPGESADPGPFVEDGTGRQRPRGPSKGEAGVEGPPLAKVEASATLKRRIRAKQNQQENVKFILTESDTVKRRPKAKEREAGPEPPPPLSVYHNGTGTVRRRPASEQAGPPELPPPPPPAEPPPTDLAHLPPLPPPEGEARKPAKPPVSPKPVLTQPVPKLQGSPTPTSKKVPLPGPGSPEVKRAHGTPPPVSPKPPPPPTAPKPVKAVAGLPSGSAGPSPAPSPARQPPAALAKPPGTPPSLGASPAKPPSPGAPALHVPAKPPRAAAAAAAAAAAPPAPPEGASPGDSARQKLEETSACLAAALQAVEEKIRQEDAQGPRDSAAEKSTGSILDDIGSMFDDLADQLDAMLE

Variants of: B1
Conditions: with tiam1_human TIAM1, Q13009
Chain of tiam1_human TIAM1, Q13009 (Q13009 whole entry): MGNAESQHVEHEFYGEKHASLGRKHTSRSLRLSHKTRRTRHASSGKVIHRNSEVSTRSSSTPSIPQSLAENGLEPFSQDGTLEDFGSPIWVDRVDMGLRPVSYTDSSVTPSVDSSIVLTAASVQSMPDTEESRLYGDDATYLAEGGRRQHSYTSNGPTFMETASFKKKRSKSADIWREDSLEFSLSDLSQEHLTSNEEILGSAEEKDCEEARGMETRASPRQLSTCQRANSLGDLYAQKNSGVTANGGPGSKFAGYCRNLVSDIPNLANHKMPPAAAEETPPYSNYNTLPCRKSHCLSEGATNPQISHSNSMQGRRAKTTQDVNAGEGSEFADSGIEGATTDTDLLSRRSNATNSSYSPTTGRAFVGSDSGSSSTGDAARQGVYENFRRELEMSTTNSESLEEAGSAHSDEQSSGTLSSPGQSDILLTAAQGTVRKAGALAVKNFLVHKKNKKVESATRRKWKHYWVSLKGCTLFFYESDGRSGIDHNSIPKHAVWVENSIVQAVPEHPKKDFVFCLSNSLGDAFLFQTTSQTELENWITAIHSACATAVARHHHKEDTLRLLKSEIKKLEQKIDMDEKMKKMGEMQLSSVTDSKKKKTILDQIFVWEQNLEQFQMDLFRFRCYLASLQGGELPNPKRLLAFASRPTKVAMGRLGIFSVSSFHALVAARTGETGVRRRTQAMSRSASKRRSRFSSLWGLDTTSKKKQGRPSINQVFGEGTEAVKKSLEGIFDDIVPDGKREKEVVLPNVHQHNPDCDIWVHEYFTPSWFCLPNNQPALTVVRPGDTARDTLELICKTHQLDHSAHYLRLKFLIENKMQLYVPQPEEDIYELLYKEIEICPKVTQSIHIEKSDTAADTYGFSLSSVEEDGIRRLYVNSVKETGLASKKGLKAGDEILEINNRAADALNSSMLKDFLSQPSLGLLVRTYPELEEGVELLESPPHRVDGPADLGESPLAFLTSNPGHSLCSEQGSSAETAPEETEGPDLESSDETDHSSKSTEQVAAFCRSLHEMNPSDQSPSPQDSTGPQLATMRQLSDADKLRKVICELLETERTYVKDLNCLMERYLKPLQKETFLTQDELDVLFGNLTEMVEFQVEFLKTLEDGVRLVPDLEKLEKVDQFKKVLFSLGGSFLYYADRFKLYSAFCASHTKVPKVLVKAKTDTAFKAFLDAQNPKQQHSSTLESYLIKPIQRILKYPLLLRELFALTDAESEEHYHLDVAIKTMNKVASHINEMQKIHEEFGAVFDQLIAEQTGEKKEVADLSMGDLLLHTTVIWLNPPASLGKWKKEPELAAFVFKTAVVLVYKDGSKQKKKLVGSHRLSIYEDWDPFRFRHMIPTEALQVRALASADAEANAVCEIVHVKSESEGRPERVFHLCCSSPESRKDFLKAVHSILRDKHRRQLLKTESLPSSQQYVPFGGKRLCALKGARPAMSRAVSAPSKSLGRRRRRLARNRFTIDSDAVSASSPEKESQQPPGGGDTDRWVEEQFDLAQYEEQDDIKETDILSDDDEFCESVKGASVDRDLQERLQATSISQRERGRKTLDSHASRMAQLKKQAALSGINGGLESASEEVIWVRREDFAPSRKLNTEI
In the case of V117D, the “effect of a mutation on the interaction” value is reported as “disrupting interaction”. For V117Q, the “effect of a mutation on the interaction” value was “disrupting interaction”.

Variants of: B1
Conditions: with cski1_human CASKIN1, Q8WXD9
In the case of V117D, the “effect of a mutation on the interaction” value is reported as “disrupting interaction”. In the case of V117Q, the “effect of a mutation on the interaction” value is reported as “disrupting interaction”.

Variants of: B2
Conditions: with apba1_human APBA1, Q02410
With V117D the “effect of a mutation on the interaction” value was “disrupting interaction”. In the case of V117Q, the “effect of a mutation on the interaction” value is reported as “disrupting interaction”.

Variants of: B3
Conditions: with cskp_human CASK
With L378A;R379A;K380A the “effect of a mutation on the interaction” value was “disrupting interaction”. For I375A;W376A;V377A, the “effect of a mutation on the interaction” value was “disrupting interaction”.

Variants of: B3
Conditions: with cskp_human CASK, O14936
I375A was tested, and the “effect of a mutation on the interaction” value was “disrupting interaction”. R379A was tested, and the “effect of a mutation on the interaction” value was “decreasing interaction”. In the case of V377A, the “effect of a mutation on the interaction” value is reported as “decreasing interaction”. With W376A the “effect of a mutation on the interaction” value was “disrupting interaction”.

Source: IntAct's records for PubMed 21763699
